This note sets out measurements from patent EP4474393A1.

Common to all, as to test: cell-based or functional assay
Test [1] concerns the target HIV-1 envelope proteins of the multiclade panel of 119 pseudoviruses.
The target in test [2] is HIV-1 envelope proteins of the panel of 100 clade C HIV-1 pseudoviruses.
For test [3], the target named is HIV-1 envelope proteins of the panel of 12 global reference pseudovirus strains of HIV-1.
The target of test [4] is HIV-1 envelope proteins of the panel of 185 pseudoviruses generated from the Antibody Mediated Prevention Trials.
Test [5] concerns the target HIV-1 envelope proteins of the panel of 7 pseudoviruses selected from the 'Resistant panel to CD4bs bNAbs'.
Test [6] has as its target HIV-1 envelope proteins of the panel of 9 pseudoviruses resistant against CD4bs bNAbs.
For test [7], the target named is HIV-1 envelope proteins of the panel of 8 pseudoviruses insensitive to neutralization by CD4bs bNAbs.

B1: 04_A06 (antibody, V domains shown)
VH: SVRLDQSGTAVKKPGASVRVSCRAPDSFTVYRPRLSAYFIGEFNIHWLRQAPGQGLEWLGFVNIFRGAVKYSSRFQGRITITRDTSSETSYLDLGALKADDTATYYCAWDKNVDDNPWRLDSWGQGTLVIVSS
VL: YIQVTQSPSSLSASIGDTITVACEVSQDVGWAVNWYHQRPGRPPYNLIYTAHNLAPGVASRFRGSRVGTYFTLTINNLLPEDVGTYYCQVFDSFAPGGTRVDL
Turning to B1, the geometric mean IC50, TZM-bl cell pseudovirus neutralization assay in test [1] was found to be 0.036 µg/mL; in test [2] it was 0.057 µg/mL; in test [3], 0.038 µg/mL. Further, the neutralization breadth, TZM-bl cell pseudovirus neutralization assay, up to 10 µg/ml in test [1] was found to be 99%; in test [2] it was 99%; in test [5] it was 86%; in test [6] it was 100%. For the same molecule, the neutralization breadth, TZM-bl cell pseudovirus neutralization assay was 100% in test [3] and less than 98% in test [4]. The same molecule displayed a GeoMean IC50, TZM-bl cell pseudovirus neutralization assay in test [4] of 0.084 µg/mL. In test [5], this molecule returned an IC50, TZM-bl cell pseudovirus neutralization assay of 0.153 µg/mL.

B2: 04_B09 (antibody, V domains shown)
VH: SVRLDQSGTAVKKPGASVRVSCRAPDSFTVYRPRLSAYFIGEFNIHWLRQAPGQGLEWLGFVNIFRGAVKYSSAFRGRITITRDTSLETSYLDLGALKPDDTATYFCAWDKNVDDNPWRLDSWGQGTLVVVSS
VL: YIQVTQSPSSLSASVGDTITVACQVSQDVGWAVNWYHQRPGRPPYNLIYTTSNLAPGVASRFRGTRVATYFTLTINNLLPEDVGTYYCQVFESFAPGGTRVDLR
For B2, in test [3], the geometric mean IC50, TZM-bl cell pseudovirus neutralization assay was less than 0.05 µg/mL and the neutralization breadth, TZM-bl cell pseudovirus neutralization assay stood at 100%.

B3: 01_B01 (antibody, V domains shown)
VH: HVQLWQSGAEVKKPGASVKISCAAWGFGTTSGYSFRDYRIHWVRQVPGQGFQWMGHIQPRYGAVNYAHQFQGRITMTREVSFDASGGTAYMELRSLRSDDTATYYCVTHKLYDGEDASDLAWRLDPWGQGTRVTVSS
VL: GVHLTQSPASLSASVGDRVTFTCQASQDITNAINWYQLRPGKTPKLMIHDGSTLRRGVPSRFAGGGFGTKFTFTIDNLQPEDLATYFCQHYEFFPPAGTQVELN
In test [3], B3 gave a geometric mean IC50, TZM-bl cell pseudovirus neutralization assay of less than 0.05 µg/mL and a neutralization breadth, TZM-bl cell pseudovirus neutralization assay of 100%.

B4: 01_D03 (antibody, V domains shown)
VH: HVQLWQSGAEVKKPGASVKISCSAWGFGTTSGYSFRDYRVHWVRHIAGQGFQWMGHMQPRYGAVNYARQFQGRITMTREVSFDASGGTAYMELRSLRSDDTAVYYCVTHKLYDGEDASDLTWRLDPWGQGTRVIVSS
VL: GVHLTQSPASLSASVGDRVTFTCQASQDITNAINWYQLRPGKTPKLMIHDGSTLRRGVPSRFAGSGFGTKFTFTIDNLQPEDLATYFCQHYEFFPPVGTQVELN
In test [3], B4 returned a geometric mean IC50, TZM-bl cell pseudovirus neutralization assay of 0.021 µg/mL and a neutralization breadth, TZM-bl cell pseudovirus neutralization assay of 100%. In test [7], the neutralization breadth, TZM-bl cell pseudovirus neutralization assay turned out to be 88%.

B5: 05_C07 (antibody, V domains shown)
VH: HVQLWQSGAEVKKPGASVKISCSAWGFGTRSGYTFRDYRIHWVRQVPRQGFEWMGHLHPAYGAVNYARQFQGRIIMTREVSFDGSGGTVYMELRSLRSDDTATYYCVTHKLYDGEDASDLTWRLDPWGQGTRVTVSS
VL: GVSLTQSPASLCASVGDRVTFTCQASQDITNAINWYQLRPGKTPKLMIHDGSTLRRGVPSRFAGSGFGTRFTFTIDNLQPEDLATYFCQHYEFFPPAGTQVDFN
In test [3], B5 returned a geometric mean IC50, TZM-bl cell pseudovirus neutralization assay of less than 0.05 µg/mL and a neutralization breadth, TZM-bl cell pseudovirus neutralization assay of 100%.
